In patent US20090175881A1 (SCHERING, published 2009):

T1: FLAG-tagged human IL-17F (human, UniProt Q96PD4 31-163, limits assumed)
T1 construct: also called intact IL-17F
T1 sequence: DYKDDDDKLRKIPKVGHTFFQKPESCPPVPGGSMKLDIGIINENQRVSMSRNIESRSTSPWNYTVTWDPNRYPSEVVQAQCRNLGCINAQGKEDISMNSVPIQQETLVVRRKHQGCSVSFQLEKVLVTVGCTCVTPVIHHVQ

T2: mouse IL-17A (mouse, UniProt Q62386 26-158, limits assumed)
T2 construct: also called mu IL-17A; mu IL-17
T2 sequence (looked up): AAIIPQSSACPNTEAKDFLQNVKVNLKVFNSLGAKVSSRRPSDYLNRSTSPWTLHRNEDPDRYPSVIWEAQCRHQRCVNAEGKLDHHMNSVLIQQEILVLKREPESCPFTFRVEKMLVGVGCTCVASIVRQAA

T3: rhIL-17A (human, UniProt Q16552 24-155)
T3 sequence: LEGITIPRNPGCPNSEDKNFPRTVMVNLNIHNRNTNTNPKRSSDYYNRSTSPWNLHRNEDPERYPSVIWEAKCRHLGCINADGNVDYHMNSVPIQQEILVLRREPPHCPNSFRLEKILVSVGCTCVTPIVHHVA

T4: cynomolgus monkey IL-17A (cynomolgus monkey, UniProt A0A2K5TTB0 24-155)
T4 sequence: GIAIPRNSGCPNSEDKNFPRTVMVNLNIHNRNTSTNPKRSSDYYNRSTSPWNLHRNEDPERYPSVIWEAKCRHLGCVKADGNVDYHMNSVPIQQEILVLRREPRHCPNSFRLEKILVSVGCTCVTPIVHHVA

T5: FLAG-huIL-17A (human, UniProt Q16552 24-155)
T5 construct: also called FLAG-huL-17A; FLAG-IL-17A
T5 sequence: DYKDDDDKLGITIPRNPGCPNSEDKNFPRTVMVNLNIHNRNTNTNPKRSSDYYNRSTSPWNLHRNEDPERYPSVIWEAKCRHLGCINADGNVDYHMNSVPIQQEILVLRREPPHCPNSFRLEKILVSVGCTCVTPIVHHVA

T6: FLAG-tagged mouse IL-17A (mouse, UniProt Q62386 26-158, limits assumed)
T6 construct: also called mIL-17A; intact mIL-17A
T6 sequence: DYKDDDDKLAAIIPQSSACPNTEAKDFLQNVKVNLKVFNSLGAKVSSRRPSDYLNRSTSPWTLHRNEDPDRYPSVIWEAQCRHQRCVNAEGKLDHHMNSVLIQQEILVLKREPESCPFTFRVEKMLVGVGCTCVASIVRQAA

T7: native human IL-17A (human, UniProt Q16552 24-155)
T7 sequence: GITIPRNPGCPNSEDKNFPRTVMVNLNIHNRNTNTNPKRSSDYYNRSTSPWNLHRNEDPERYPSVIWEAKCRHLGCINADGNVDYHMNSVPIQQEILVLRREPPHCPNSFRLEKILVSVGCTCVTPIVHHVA


What was measured:
FLAG-tagged human IL-17F = molecular target: T1, FLAG-tagged human IL-17F; experiment: AlphaScreen
Experimental: Each of these three proteins was linked to an N-terminal FLAG® peptide tag (see residues 1 to 9 of SEQ ID NO.: 42). […] Donor and acceptor beads were mixed, illuminated at 680 nm, and emission was measured at 520-620 nm.

mouse IL-17A [1] = molecular target: T2, mouse IL-17A; experiment: ECL (Origen)
Experimental: (§1) ECL assays were performed as follows. Three-fold serial dilutions of anti-human IL-17A mAbs in 50 μl of the assay buffer were made in a 96-well microtiter plate to give 1-3 μg/ml final concentration in the first well. […] Finally 50 μl of Origen Streptavidin-Dynabeads at 0.1 mg/ml was added to each well. […] GraphPad Prism software (GraphPad Software, San Diego, Calif., USA) was used to plot the data and calculate area under the curve, which is a rough measure of binding.

rhIL-17A [2] = molecular target: T3, rhIL-17A; experiment: cell-based or functional assay
cynomolgus monkey IL-17A [3] = molecular target: T4, cynomolgus monkey IL-17A; experiment: cell-based or functional assay
rhIL-17A [4] = molecular target: T3, rhIL-17A; experiment: cell-based or functional assay; remark: listed apart in the source
cynomolgus monkey IL-17A [5] = molecular target: T4, cynomolgus monkey IL-17A; experiment: cell-based or functional assay; remark: listed apart in the source
rhIL-17A [6] = molecular target: T3, rhIL-17A; experiment: cell-based or functional assay; remark: listed apart in the source
cynomolgus monkey IL-17A [7] = molecular target: T4, cynomolgus monkey IL-17A; experiment: cell-based or functional assay; remark: listed apart in the source
rhIL-17A [8] = molecular target: T3, rhIL-17A; experiment: cell-based or functional assay; remark: listed apart in the source
rhIL-17A [9] = molecular target: T3, rhIL-17A; experiment: cell-based or functional assay; remark: listed apart in the source
cynomolgus monkey IL-17A [10] = molecular target: T4, cynomolgus monkey IL-17A; experiment: cell-based or functional assay; remark: listed apart in the source
rhIL-17A [11] = molecular target: T3, rhIL-17A; experiment: KinExA, solution equilibrium
Experimental: (§2) The equilibrium dissociation constants (Kd) for anti human IL-17A antibodies were determined using the KinExA 3000 instrument (Sapidyne Instruments Inc., Boise, Id., USA). KinExA uses the principle of the Kinetic Exclusion Assay method based on measuring the concentration of uncomplexed antibody in a mixture of antibody, antigen and antibody-antigen complex. […] The concentration of free antibody is measured by exposing the mixture to a solid-phase immobilized antigen for a very brief period of time. l practice, this is accomplished by flowing the solution phase antigen-antibody mixture past antigen-coated particles trapped in a flow cell. Data generated by the instrument are analyzed using custom software.
(§3) IL-17A was derived from either human (“hu”), cynomolgus monkey (“cyno”), or mouse (“mu”). IL-17A from the same species was used in both the immobilized and solution phases for each KinExA determination. Poly(methyl-methacrylate) (PMMA) particles (98 micron) were coated with human, cyno or mouse IL-17A according to Sapidyne “Protocol for coating PMMA particles with biotinylated ligands having short or nonexistent linker arms.” All experimental procedures were done according to the KinExA 3000 manual. All runs were done in duplicate.
(§4) Two-fold serial dilutions of the antigen were prepared and mixed with the antibody at constant concentration. The mixture was incubated for 2 hours at 25° C. to equilibrate.

FLAG-huIL-17A [12] = molecular target: T5, FLAG-huIL-17A; experiment: KinExA, solution equilibrium
Experimental: as §2, §3, §4

cynomolgus monkey IL-17A [13] = molecular target: T4, cynomolgus monkey IL-17A; experiment: KinExA, solution equilibrium
Experimental: as §2, §3, §4

cynomolgus monkey IL-17A [14] = molecular target: T4, cynomolgus monkey IL-17A; experiment: ECL (Origen); area under the curve
Text: (§5) Origen electrochemiluminescence technology, developed by IGEN, Inc. (Gaithersburg, Md., USA), and was employed to measure the binding of rat anti-human IL-17A antibodies (and one chimeric antibody) to FLAG-huL-17A. […] Electrochemiluminescence technology uses a stable ruthenium metal chelate (Ori-TAG) which, in the presence of tripropylamine (TPA), generates electrochemiluminescence upon voltage application. Paramagnetic beads, microns in diameter, act as the solid phase and facilitate rapid assay kinetics. The bead/complex is channeled through a flow cell and captured at an electrode by magnetic application. Voltage is applied and resulting electrochemiluminescence is measured.
as §1

FLAG-tagged mouse IL-17A = molecular target: T6, FLAG-tagged mouse IL-17A; experiment: observation on which Example 19 is based
rhIL-17A [15] = molecular target: T3, rhIL-17A; experiment: indirect ELISA, rhIL-17A coated on plate
Experimental: Binding of anti-human-IL-17A monoclonal antibodies to rhIL-17A is assessed using an indirect enzyme-linked immunosorbent assay (ELISA). Briefly, a fixed concentration of rhIL-17A is bound directly to the wells of a microtiter plate. The monoclonal anti-IL-17A to be assayed is then is added to the rhIL-17A coated plate, where the antibody is captured and quantitated.
A 96-well U-bottom MaxiSorp plate is coated with 50 μl/well of rhIL-17A (0.5 μg/ml) in carbonate coating buffer (the “assay plate”). Carbonate coating buffer is 2.9 g/L NaHFCO₃, 1.6 g/L Na₂CO₃, pH 9.4. Plates are incubated covered at 4° C. overnight. Monoclonal antibodies to be screened are serially diluted in duplicate across the rows of a V-bottom plate such that the final volume is 60 μl/well (the “serial dilution plate”). The assay plate is washed three times with PBS-Tween in a plate washer (SkanWasher, Molecular Devices, Sunnyvale, Calif., USA) and blotted dry. PBS-Tween is obtained by adding 0.5 ml/L Tween 20 to 1×PBS. Fifty μl from each well of the serial dilution plate is transferred to the assay plate and incubated at 25° C. for one hour. Secondary antibodies are diluted 1/2000 in diluent (PBS-BSA-Tween, which is PBS-Tween with 1 g/L BSA). The secondary antibody for rat monoclonal antibodies is goat anti-rat IgG (H+L)—HRP (Jackson ImmunoResearch Laboratories, Inc., West Grove, Pa., USA). The secondary antibody for chimeric and humanized monoclonal antibodies is F(ab′)₂ goat anti-human IgG Fcγ—HRP (Jackson ImmunoResearch Laboratories, Inc.). The assay plate is washed as before. Diluted secondary antibodies (100 μl/well) are added to the appropriate wells in the assay plate, and the plate is incubated at 25° C. for 45 minutes. The assay plate is washed as before.

FLAG-huIL-17A [16] = molecular target: T5, FLAG-huIL-17A; experiment: ECL (Origen), antibody titrated against biotinylated antigen; area under the curve
Text: as §5, §1

native human IL-17A [17] = molecular target: T7, native human IL-17A; experiment: cell-based or functional assay
native human IL-17A [18] = molecular target: T7, native human IL-17A; experiment: cell-based or functional assay; remark: listed apart in the source
mouse IL-17A [19] = molecular target: T2, mouse IL-17A; experiment: KinExA, solution equilibrium
Experimental: as §2, §3, §4

mouse IL-17A [20] = molecular target: T2, mouse IL-17A; experiment: ECL (Origen); area under the curve
Text: as §5, §1

| Binder | IC50, synoviocyte IL-6 production, rhIL-17A (30 ng/ml) (rhIL-17A [2]) [µg/mL] | IC50, synoviocyte IL-6 production, NHP IL-17A (30 ng/ml) (cynomolgus monkey IL-17A [3]) [µg/mL] | IC50, synoviocyte IL-8 production, rhIL-17A (30 ng/ml) (rhIL-17A [4]) [µg/mL] | IC50, synoviocyte IL-8 production, NHP IL-17A (30 ng/ml) (cynomolgus monkey IL-17A [5]) [µg/mL] | IC50, inhibition of IL-6 production in NHDF cells, rhIL-17A (rhIL-17A [6]) [nM] | IC50, inhibition of IL-6 production in NHDF cells, cyno IL-17A (cynomolgus monkey IL-17A [7]) [nM] | IC50, foreskin fibroblast (HS68) assay, rhIL-17A-induced IL-6 (rhIL-17A [8]) [nM] | IC50, Ba/F3 hIL-17Rc-mGCSFR proliferation assay, IL-17A at 276 pM (rhIL-17A [9]) [pM] | IC50, Ba/F3 hIL-17Rc-mGCSFR proliferation assay, IL-17A at 100 pM (cynomolgus monkey IL-17A [10]) [pM] | Kd (FLAG-huIL-17A [12]) [nM] | Kd (cynomolgus monkey IL-17A [13]) [nM] | Area Under Peak (cynomolgus monkey IL-17A [14]) | Area Under Peak (FLAG-huIL-17A [16]) | Kd (mouse IL-17A [19]) [nM] | Area Under Peak (mouse IL-17A [20]) | also measured |
| --- | --- | --- | --- | --- | --- | --- | --- | --- | --- | --- | --- | --- | --- | --- | --- | --- |
| rat 16C10 (antibody, rat IgG1, V domains shown, also called 16C10C; antibody 16C10) VH: QVELRESGPGLVQPSQTLSLTCTVSGFSLPSHSVSWIRQPPGKGLEWMGIIWNNGGTDYNSAFKSRLTISRDTSKSQVFLKMNSLQTEDTAMYFCARNMYITDYYYENYFMDAWGQGASVTVSS VL: DIVMTQSPSSLAVSIGETVTLNCKSSQSLLFSENQKNYLAWYQHKSGQSPKLLVYWTSTRQSGVPDRFMGSGSGTDFTLTISSVQAEDLAIYYCQQSYYTPYTFGAGTKLELKR | 0.063 | 0.06 | 0.038 | 0.033 | 0.5 | 0.2 | 0.067 | 162 | 27 | 0.0036 | 0.0017 | 152000 | 286000 | – | – | binding result (FLAG-tagged human IL-17F): no binding; binding result (mouse IL-17A [1]): no binding (tested: 1-3 µg/ml antibody in the first well); IC50, Ba/F3 hIL-17Rc-mGCSFR proliferation assay, IL-17A at 100 pM (rhIL-17A [9]): 20 pM; Kd (rhIL-17A [11]): 0.006 nM; binding result (FLAG-tagged mouse IL-17A): no binding; EC50 (rhIL-17A [15]): 0.274 nM |
| rat 1D10 (antibody, V domains shown, Parental rat monoclonal antibody; also called ID10; anti-IL-17A antibody 1D10) VH: QVQLKESGPGLVQPSQTLSLTCTVSGFSLTNYYVHWVRQPPGKGLEWMGGVWNDGDTSYNSVLRSRLSITRDTSKSQVLLKMSSLQTEDTATYYCAREGREGFVGYYVMDAWGPGASVTVSS VL: DIQMTQSPSFLSASVGERVTLSCKASQNINKYLDWFQQKLGEAPKLLIYNADNLHTGIPSRFSGSGSFSDFILTISSLQPEDDATYFCLQRESWPYTFGAGTKLELKR | 0.105 | 0.065 | 0.059 | 0.038 | 1 | 0.4 | 0.065 | 223 | 19 | 0.0017 | 0.0098 | 136000 | 477000 | 0.0103 | 252000 | IC50, synoviocyte IL-6 production, Native huIL-17A (10 ng/ml) (native human IL-17A [17]): 0.025 µg/mL; IC50, synoviocyte IL-8 production, Native huIL-17A (10 ng/ml) (native human IL-17A [18]): 0.04 µg/mL |
| rat 23E12 (antibody, V domains shown, Parental rat monoclonal antibody (hybridoma PTA-7740)) VH: QVQLKESGPGLVQPSQTLSLTCTVFGFSLTNNGVTWVRQPPGKGLEWIAEVSSGGSTDYNSALKSRLSISRDTSKSQVFLRMNSLQTEDTAIYFCARQEVFTGLLDYWGQGVMVTVSS VL: DIQMTQSPASLSASLGETVTIQCQASEDIYSGLAWYHQKPGKSPQLLILGASRLHDGVPSRFSGSGSGIEYSLKINNMQTEDEGIYFCQQGLKYPPTFGGGTKLELKR | – | – | – | – | 1 | 0.3 | 0.126 | – | – | 0.0028 | 0.028 | 111000 | 285000 | 7 | 143000 | – |
